In patent US20180250396A1 (FONDAZIONE IRCCS ISTITUTO NAZIONALE DEI TUMORI, published 2018) one finds binding result and Kd data, which are given here for three molecules.

The target in experiment [1] is T1, naive TRAIL-R2 captured from SU-DHL-4 cell lysate (human, UniProt O14763 56-440, limits assumed).
T1 construct: also called naïve TRAIL-R2; natural TRAIL-R2
The experiment in a line: single clone phage ELISA (scFv on phage), TRAIL-R2 captured from SU-DHL-4 lysate. (In general: ELISA stands for enzyme-linked immunosorbent assay.)

The target in experiment [2] is T2, TRAIL-R2 on cells (TRAIL-R2+ human melanoma and other tumor cell lines) (human, UniProt O14763 56-440).
T2 construct: whole, on cells; Endogenous receptor on cell lines; also called TRAIL-R2+ cells
Nature of the experiment: soluble scFv on TRAIL-R2+ cells.

Experiment [3] addresses T3, Recombinant human TRAIL-R2 (R&D Systems) (human, UniProt O14763 54-182, limits assumed).
T3 construct: Bought recombinant protein, amine-coupled to a CM5 chip; also called TRAIL-R2 recombinant protein; recombinant receptor
The experiment in a line: SPR (BIAcore), recombinant TRAIL-R2 immobilised on a CM5 chip, 5 scDb concentrations from 400 to 25 nM. On the technique in general: SPR reads the build-up and loss of mass on a sensor chip optically.

B1: Clone 44 anti-TRAIL-R2 ScFv isolated with Phage Display (scFv)
scFv: QVHLRESGGGLVQPGRSLRLSCAASGFTFDDYAMHWVRQAPGKGLEWVSGISWNSGSISYADSVKGRFTISRDNAKNSLYLQMSSLRSEDTAVYYCARDPNHGGDRRDDALDMWGQGTMVTVSSGGGGSGGGGSGGGGSSELTQDPAVSVALGQTVRITCQGHSLRSYFASWYQQRPRQAPTLVIYGKNNRPSGIPDRFSGSSSGNTASLTITGAQAEDEADYYCGSRDSSSTHRGVFGGGTKLTVLGAA
notes: Tested on phage and as soluble scFv
With B1, the binding result in experiment [1] and in experiment [2] was “binds” in each case.

B2: scDb 16e2/hUCTH1 (bispecific antibody)
chain: EVQLVQSGGGVERPGGSLRLSCAASGFTFDDYGMSWVRQAPGKGLEWVSGINWNGGSTGYADSVKGRVTISRDNAKNSLYLQMNSLRAEDTAVYYCAKILGAGRGWYFDLWGKGTTVTVSSTGGGGSDIQMTQSPSSLSASVGDRVTITCRASQDIRNYLNWYQQKPGKAPKLLIYYTSRLESGVPSRFSGSGSGTDYTLTISSLQPEDFATYYCQQGNTLPWTFGQGTKVEIKRGGGGSGGGGSGGGGSEVQLVESGGGLVQPGGSLRLSCAASGYSFTGYTMNWVRQAPGKGLEWVALINPYKGVSTYNQKFKDRFTISVDKSKNTAYLQMNSLRAEDTAVYYCARSGYYGDSDWYFDVWGQGTLVTVSSGGGGSRSELTQDPAVSVALGQTVRITCQGDSLRSYYASWYQQKPGQAPVLVIYGKNNRPSGIPDRFSGSSSGNTASLTITGAQAEDEADYYCNSRDSSGNHVVFGGGTKLTVLAAAHHHHHHGAAEQKLISEEDLNGAA
notes: Made in E. coli HB2151 periplasm; also called 16e2×hUCTH1 scDb; 16E2×hUCTH1 scDb
Take B2: the Kd in experiment [3] came out at 148 nM.

B3: Clone 8 anti-TRAIL-R2 ScFv isolated with Phage Display (scFv)
scFv: EVQLLESGGGLVQPGGSLRLSCAASGFTFSSYAMSWVRQAPGKGLEWVSAISQQGQVTDYADSVKGRFTISRDNSKNTLYLQMNSLRAEDTAVYYCAKRWNRFDYWGQGTLVIVSSGGGGSGGGGSGGGGSTDIQMTQSPSSLSASVGDRVTITCRASQSISSYLNWYQQKPGKAPKLLIYAASGLQSGVPSRFSGSGSGTDFTLTISSLQPEDFATYYCQQHSMSPNTFGQGTKVEIKRAA
notes: as for B1
Turning to B3, the binding result in experiment [1] and in experiment [2] was “binds” throughout.

The Kd is a measure of binding affinity in units of concentration.
